The text below walks through data of paper PMC4655838, “Versatility in phospho-dependent molecular recognition of the XRCC1 and XRCC4 DNA-damage scaffolds by aprataxin-family FHA domains” (DNA Repair, 2015).

Assay [1] deals with T1, APLF FHA domain (residues 1-106) (UniProt Q8IW19 1-106).
T1 construct: Cloned BamHI/XhoI in pGEX-6P-1; also called aprataxin- and PNKP-like factor FHA domain; source: E. coli Rosetta2 (DE3), purified (glutathione resin, cleaved with rhinovirus 3C protease, Superdex 75); not shown: GST, N-terminal, cleaved
T1 sequence (looked up): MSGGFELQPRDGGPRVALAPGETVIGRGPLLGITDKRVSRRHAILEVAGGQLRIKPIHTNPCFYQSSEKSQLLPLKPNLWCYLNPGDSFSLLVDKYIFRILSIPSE
The assay is described as follows: ITC; peptide injected (30 x 10 ul) into FHA domain in the cell; 22 °C; 50 mM HEPES pH 7.5, 150 mM NaCl, 5 mM β-mercaptoethanol; XRCC1 peptides 1 mM into 100 μM protein, XRCC4 peptides 300 μM into 30 μM protein; single-site binding model. The note with it: both partners purified.

Assay [2] deals with T2, selenomethionine-labelled APLF FHA domain L91M (residues 1-106) (UniProt Q8IW19 1-106, L91 M, selenomethionine-labelled).
T2 construct: residues 1-104 are in the final model; also called APLF L91 M; APLF/XRCC4 SeMet; source: E. coli Rosetta2 (DE3) in SelenoMet medium, purified as the wild-type protein; not shown: GST, N-terminal, cleaved
T2 sequence (looked up): T1 sequence (looked up) with L91M
The assay is described as follows: crystal structure; selenomethionine-labelled APLF FHA L91M with peptide at 1:3; hanging drops at 18 °C, 0.1 M Tris pH 8.0, 30% PEG 3350, 0.2 M MgCl2; SAD, refined at 1.4 Å. The following applies: both partners purified.

Numbering of substitutions follows the chain as printed. Square brackets hold non-standard residues; d marks the D form. Ends that are not written are not given here. pT = C[C@@H](OP(=O)(O)O)[C@H](N)C(=O)O; pS = N[C@@H](COP(=O)(O)O)C(=O)O

B1: XRCC1 515-529 peptide phosphorylated on Ser518 and Thr519 (peptide)
peptide: YAGSTDENTDSEEHQ
HELM: PEPTIDE1{Y.A.G.[O=C([C@H](COP(=O)(O)O)N[*:1])[*:2]].[C[C@@H](OP(=O)(O)O)[C@H](N[*:1])C(=O)[*:2]].D.E.N.T.D.S.E.E.H.Q.[am]}$$$$V2.0; N-terminus assumed
SMILES: C[C@H](NC(=O)[C@@H](N)Cc1ccc(O)cc1)C(=O)NCC(=O)N[C@@H](COP(=O)(O)O)C(=O)N[C@H](C(=O)N[C@@H](CC(=O)O)C(=O)N[C@@H](CCC(=O)O)C(=O)N[C@@H](CC(N)=O)C(=O)N[C@H](C(=O)N[C@@H](CC(=O)O)C(=O)N[C@@H](CO)C(=O)N[C@@H](CCC(=O)O)C(=O)N[C@@H](CCC(=O)O)C(=O)N[C@@H](Cc1c[nH]cn1)C(=O)N[C@@H](CCC(N)=O)C(N)=O)[C@@H](C)O)[C@@H](C)OP(=O)(O)O
notes: XRCC1 residues 515-529; also called di-phosphorylated XRCC1 peptide; source: synthetic peptide (Dr. W. Mawby, University of Bristol), purified by HPLC
As for B1, in assay [1], the “fold increase in binding over the mono-phosphorylated peptide” value was around 3 fold.

B2: XRCC1 515-529 peptide phosphorylated on Ser518, Thr519 and Thr523 (peptide)
peptide: YAG[pS][pT]DEN[pT]DSEEHQ-NH2
modifications: N-terminus assumed
SMILES: C[C@H](NC(=O)[C@@H](N)Cc1ccc(O)cc1)C(=O)NCC(=O)N[C@@H](COP(=O)(O)O)C(=O)N[C@H](C(=O)N[C@@H](CC(=O)O)C(=O)N[C@@H](CCC(=O)O)C(=O)N[C@@H](CC(N)=O)C(=O)N[C@H](C(=O)N[C@@H](CC(=O)O)C(=O)N[C@@H](CO)C(=O)N[C@@H](CCC(=O)O)C(=O)N[C@@H](CCC(=O)O)C(=O)N[C@@H](Cc1c[nH]cn1)C(=O)N[C@@H](CCC(N)=O)C(N)=O)[C@@H](C)OP(=O)(O)O)[C@@H](C)OP(=O)(O)O
notes: XRCC1 residues 515-529; also called YAGpSpTDENpTDSEEHQ; tri-phosphorylated XRCC1 peptide; source: synthetic peptide (Dr. W. Mawby, University of Bristol), purified by HPLC
As for B2, in assay [1], the “fold weaker binding than the triphosphorylated XRCC4 peptide” value was 26 fold and the “stoichiometry N” value is ~2 APLF FHA domains per peptide.

B3: XRCC1 515-529 peptide phosphorylated on Ser518, Thr519, Thr523 and Ser525 (peptide)
peptide: YAG[pS][pT]DEN[pT]D[pS]EEHQ-NH2
modifications: N-terminus assumed
SMILES: C[C@H](NC(=O)[C@@H](N)Cc1ccc(O)cc1)C(=O)NCC(=O)N[C@@H](COP(=O)(O)O)C(=O)N[C@H](C(=O)N[C@@H](CC(=O)O)C(=O)N[C@@H](CCC(=O)O)C(=O)N[C@@H](CC(N)=O)C(=O)N[C@H](C(=O)N[C@@H](CC(=O)O)C(=O)N[C@@H](COP(=O)(O)O)C(=O)N[C@@H](CCC(=O)O)C(=O)N[C@@H](CCC(=O)O)C(=O)N[C@@H](Cc1c[nH]cn1)C(=O)N[C@@H](CCC(N)=O)C(N)=O)[C@@H](C)OP(=O)(O)O)[C@@H](C)OP(=O)(O)O
notes: XRCC1 residues 515-529; also called tetra-phosphorylated XRCC1 peptide; source: synthetic peptide (Dr. W. Mawby, University of Bristol), purified by HPLC
Take B3: the “stoichiometry N” value in assay [1] is ~2 APLF FHA domains per peptide.

B4: XRCC4 229-237 peptide phosphorylated on Thr233 (peptide)
peptide: YDESTDEES
HELM: PEPTIDE1{Y.D.E.S.[C[C@@H](OP(=O)(O)O)[C@H](N[*:1])C(=O)[*:2]].D.E.E.S.[am]}$$$$V2.0; N-terminus assumed
SMILES: C[C@@H](OP(=O)(O)O)[C@H](NC(=O)[C@H](CO)NC(=O)[C@H](CCC(=O)O)NC(=O)[C@H](CC(=O)O)NC(=O)[C@@H](N)Cc1ccc(O)cc1)C(=O)N[C@@H](CC(=O)O)C(=O)N[C@@H](CCC(=O)O)C(=O)N[C@@H](CCC(=O)O)C(=O)N[C@@H](CO)C(N)=O
notes: also called mono-phosphorylated (pT233) XRCC4; XRCC4 peptide phosphorylated solely on the threonine in the core motif; source: synthetic peptide (Dr. W. Mawby, University of Bristol), purified by HPLC
As for B4, the “fold tighter binding than the XRCC1 pThr519 peptide” value in assay [1] is around 8 fold.

B5: XRCC4 229-237 peptide phosphorylated on Ser232, Thr233 and Ser237 (peptide)
peptide: YDE[pS][pT]DEE[pS]-NH2
modifications: N-terminus assumed
SMILES: C[C@@H](OP(=O)(O)O)[C@H](NC(=O)[C@H](COP(=O)(O)O)NC(=O)[C@H](CCC(=O)O)NC(=O)[C@H](CC(=O)O)NC(=O)[C@@H](N)Cc1ccc(O)cc1)C(=O)N[C@@H](CC(=O)O)C(=O)N[C@@H](CCC(=O)O)C(=O)N[C@@H](CCC(=O)O)C(=O)N[C@@H](COP(=O)(O)O)C(N)=O
notes: also called tri-phosphorylated XRCC4 peptide; triphosphorylated XRCC4; source: synthetic peptide (Dr. W. Mawby, University of Bristol), purified by HPLC
Take B5: the binding result in assay [2] is reported as “binds”.
